Measurements published in the MegaScale stability set (Tsuboyama et al. 2023).

B1: EHEE_rd2_0601 (parent)
chain: TYTYKLTDEEASRRAEDEWRNRGYDVRVRNNNGTWEVEVR

Variants of: B1
Test: folding stability dG (cDNA display proteolysis); higher = more stable
Conditions: PBS, room temperature

Variant | folding stability dG
TYTYKLTDEEASRRAEDEWVNRGYDVRVRNNNGTWEVEVR | 0.659 kcal/mol
TYTYKLTDEEASRRAEDEWWNRGYDVRVRNNNGTWEVEVR | -0.078 kcal/mol
TYTYKLTDEEASRRAEDEWYNRGYDVRVRNNNGTWEVEVR | 0.246 kcal/mol
TYTYKLTDEEASRRAEDEWRARGYDVRVRNNNGTWEVEVR | 1.82 kcal/mol
TYTYKLTDEEASRRAEDEWRDRGYDVRVRNNNGTWEVEVR | 1.16 kcal/mol
TYTYKLTDEEASRRAEDEWRERGYDVRVRNNNGTWEVEVR | 1.34 kcal/mol
TYTYKLTDEEASRRAEDEWRFRGYDVRVRNNNGTWEVEVR | 1.04 kcal/mol
TYTYKLTDEEASRRAEDEWRGRGYDVRVRNNNGTWEVEVR | 1.42 kcal/mol
TYTYKLTDEEASRRAEDEWRHRGYDVRVRNNNGTWEVEVR | 1.24 kcal/mol
TYTYKLTDEEASRRAEDEWRIRGYDVRVRNNNGTWEVEVR | 1.22 kcal/mol
TYTYKLTDEEASRRAEDEWRKRGYDVRVRNNNGTWEVEVR | 1.97 kcal/mol
TYTYKLTDEEASRRAEDEWRLRGYDVRVRNNNGTWEVEVR | 1.65 kcal/mol
TYTYKLTDEEASRRAEDEWRMRGYDVRVRNNNGTWEVEVR | 1.58 kcal/mol
TYTYKLTDEEASRRAEDEWRQRGYDVRVRNNNGTWEVEVR | 1.65 kcal/mol
TYTYKLTDEEASRRAEDEWRRRGYDVRVRNNNGTWEVEVR | 1.96 kcal/mol
TYTYKLTDEEASRRAEDEWRSRGYDVRVRNNNGTWEVEVR | 1.82 kcal/mol
TYTYKLTDEEASRRAEDEWRTRGYDVRVRNNNGTWEVEVR | 1.31 kcal/mol
TYTYKLTDEEASRRAEDEWRVRGYDVRVRNNNGTWEVEVR | 1.1 kcal/mol
TYTYKLTDEEASRRAEDEWRWRGYDVRVRNNNGTWEVEVR | 0.672 kcal/mol
TYTYKLTDEEASRRAEDEWRYRGYDVRVRNNNGTWEVEVR | 0.831 kcal/mol
TYTYKLTDEEASRRAEDEWRNAGYDVRVRNNNGTWEVEVR | 1.22 kcal/mol
TYTYKLTDEEASRRAEDEWRNCGYDVRVRNNNGTWEVEVR | 1.03 kcal/mol
TYTYKLTDEEASRRAEDEWRNDGYDVRVRNNNGTWEVEVR | -0.181 kcal/mol
TYTYKLTDEEASRRAEDEWRNEGYDVRVRNNNGTWEVEVR | 0.251 kcal/mol
TYTYKLTDEEASRRAEDEWRNFGYDVRVRNNNGTWEVEVR | 0.44 kcal/mol

Variant | folding stability dG
TYTYKLTDEEASRRAEDEWRNGGYDVRVRNNNGTWEVEVR | 0.192 kcal/mol
TYTYKLTDEEASRRAEDEWRNHGYDVRVRNNNGTWEVEVR | 0.666 kcal/mol
TYTYKLTDEEASRRAEDEWRNIGYDVRVRNNNGTWEVEVR | 0.421 kcal/mol
TYTYKLTDEEASRRAEDEWRNKGYDVRVRNNNGTWEVEVR | 1.45 kcal/mol
TYTYKLTDEEASRRAEDEWRNLGYDVRVRNNNGTWEVEVR | 1.46 kcal/mol
TYTYKLTDEEASRRAEDEWRNMGYDVRVRNNNGTWEVEVR | 1.29 kcal/mol
TYTYKLTDEEASRRAEDEWRNNGYDVRVRNNNGTWEVEVR | 0.518 kcal/mol
TYTYKLTDEEASRRAEDEWRNQGYDVRVRNNNGTWEVEVR | 0.939 kcal/mol
TYTYKLTDEEASRRAEDEWRNSGYDVRVRNNNGTWEVEVR | 0.439 kcal/mol
TYTYKLTDEEASRRAEDEWRNTGYDVRVRNNNGTWEVEVR | -0.242 kcal/mol
TYTYKLTDEEASRRAEDEWRNVGYDVRVRNNNGTWEVEVR | -0.052 kcal/mol
TYTYKLTDEEASRRAEDEWRNWGYDVRVRNNNGTWEVEVR | 0.762 kcal/mol
TYTYKLTDEEASRRAEDEWRNYGYDVRVRNNNGTWEVEVR | 0.488 kcal/mol
TYTYKLTDEEASRRAEDEWRNRCYDVRVRNNNGTWEVEVR | 1.14 kcal/mol
TYTYKLTDEEASRRAEDEWRNRFYDVRVRNNNGTWEVEVR | -0.542 kcal/mol
TYTYKLTDEEASRRAEDEWRNRHYDVRVRNNNGTWEVEVR | -0.048 kcal/mol
TYTYKLTDEEASRRAEDEWRNRKYDVRVRNNNGTWEVEVR | -0.509 kcal/mol
TYTYKLTDEEASRRAEDEWRNRMYDVRVRNNNGTWEVEVR | -0.97 kcal/mol
TYTYKLTDEEASRRAEDEWRNRNYDVRVRNNNGTWEVEVR | -0.169 kcal/mol
TYTYKLTDEEASRRAEDEWRNRQYDVRVRNNNGTWEVEVR | -0.624 kcal/mol
TYTYKLTDEEASRRAEDEWRNRWYDVRVRNNNGTWEVEVR | -0.693 kcal/mol
TYTYKLTDEEASRRAEDEWRNRYYDVRVRNNNGTWEVEVR | -0.588 kcal/mol
TYTYKLTDEEASRRAEDEWRNRGADVRVRNNNGTWEVEVR | 0.049 kcal/mol
TYTYKLTDEEASRRAEDEWRNRGCDVRVRNNNGTWEVEVR | 1.21 kcal/mol
TYTYKLTDEEASRRAEDEWRNRGFDVRVRNNNGTWEVEVR | 1.51 kcal/mol

Variant | folding stability dG
TYTYKLTDEEASRRAEDEWRNRGHDVRVRNNNGTWEVEVR | 0.447 kcal/mol
TYTYKLTDEEASRRAEDEWRNRGIDVRVRNNNGTWEVEVR | -0.012 kcal/mol
TYTYKLTDEEASRRAEDEWRNRGKDVRVRNNNGTWEVEVR | -0.577 kcal/mol
TYTYKLTDEEASRRAEDEWRNRGLDVRVRNNNGTWEVEVR | 0.28 kcal/mol
TYTYKLTDEEASRRAEDEWRNRGMDVRVRNNNGTWEVEVR | 0.281 kcal/mol
TYTYKLTDEEASRRAEDEWRNRGNDVRVRNNNGTWEVEVR | -0.731 kcal/mol
TYTYKLTDEEASRRAEDEWRNRGQDVRVRNNNGTWEVEVR | -0.84 kcal/mol
TYTYKLTDEEASRRAEDEWRNRGRDVRVRNNNGTWEVEVR | -0.49 kcal/mol
TYTYKLTDEEASRRAEDEWRNRGTDVRVRNNNGTWEVEVR | -0.625 kcal/mol
TYTYKLTDEEASRRAEDEWRNRGVDVRVRNNNGTWEVEVR | 0.003 kcal/mol
TYTYKLTDEEASRRAEDEWRNRGWDVRVRNNNGTWEVEVR | 0.791 kcal/mol
TYTYKLTDEEASRRAEDEWRNRGYAVRVRNNNGTWEVEVR | 1.25 kcal/mol
TYTYKLTDEEASRRAEDEWRNRGYEVRVRNNNGTWEVEVR | 1.82 kcal/mol
TYTYKLTDEEASRRAEDEWRNRGYFVRVRNNNGTWEVEVR | 1.35 kcal/mol
TYTYKLTDEEASRRAEDEWRNRGYGVRVRNNNGTWEVEVR | 0.602 kcal/mol
TYTYKLTDEEASRRAEDEWRNRGYHVRVRNNNGTWEVEVR | 1.56 kcal/mol
TYTYKLTDEEASRRAEDEWRNRGYIVRVRNNNGTWEVEVR | 1.76 kcal/mol
TYTYKLTDEEASRRAEDEWRNRGYKVRVRNNNGTWEVEVR | 1.16 kcal/mol
TYTYKLTDEEASRRAEDEWRNRGYLVRVRNNNGTWEVEVR | 1.48 kcal/mol
TYTYKLTDEEASRRAEDEWRNRGYMVRVRNNNGTWEVEVR | 1.36 kcal/mol
TYTYKLTDEEASRRAEDEWRNRGYNVRVRNNNGTWEVEVR | 1.3 kcal/mol
TYTYKLTDEEASRRAEDEWRNRGYPVRVRNNNGTWEVEVR | 0.219 kcal/mol
TYTYKLTDEEASRRAEDEWRNRGYQVRVRNNNGTWEVEVR | 1.64 kcal/mol
TYTYKLTDEEASRRAEDEWRNRGYRVRVRNNNGTWEVEVR | 1.23 kcal/mol
TYTYKLTDEEASRRAEDEWRNRGYSVRVRNNNGTWEVEVR | 1.3 kcal/mol

Variant | folding stability dG
TYTYKLTDEEASRRAEDEWRNRGYTVRVRNNNGTWEVEVR | 1.46 kcal/mol
TYTYKLTDEEASRRAEDEWRNRGYVVRVRNNNGTWEVEVR | 1.52 kcal/mol
TYTYKLTDEEASRRAEDEWRNRGYWVRVRNNNGTWEVEVR | 1.53 kcal/mol
TYTYKLTDEEASRRAEDEWRNRGYYVRVRNNNGTWEVEVR | 1.27 kcal/mol
TYTYKLTDEEASRRAEDEWRNRGYDARVRNNNGTWEVEVR | 0.393 kcal/mol
TYTYKLTDEEASRRAEDEWRNRGYDFRVRNNNGTWEVEVR | -0.688 kcal/mol
TYTYKLTDEEASRRAEDEWRNRGYDIRVRNNNGTWEVEVR | 0.319 kcal/mol
TYTYKLTDEEASRRAEDEWRNRGYDPRVRNNNGTWEVEVR | -0.384 kcal/mol
TYTYKLTDEEASRRAEDEWRNRGYDTRVRNNNGTWEVEVR | 0.439 kcal/mol
TYTYKLTDEEASRRAEDEWRNRGYDVAVRNNNGTWEVEVR | 1.42 kcal/mol
TYTYKLTDEEASRRAEDEWRNRGYDVCVRNNNGTWEVEVR | 1.69 kcal/mol
TYTYKLTDEEASRRAEDEWRNRGYDVDVRNNNGTWEVEVR | 1.07 kcal/mol
TYTYKLTDEEASRRAEDEWRNRGYDVEVRNNNGTWEVEVR | 1.6 kcal/mol
TYTYKLTDEEASRRAEDEWRNRGYDVFVRNNNGTWEVEVR | 1.67 kcal/mol
TYTYKLTDEEASRRAEDEWRNRGYDVGVRNNNGTWEVEVR | 0.575 kcal/mol
TYTYKLTDEEASRRAEDEWRNRGYDVHVRNNNGTWEVEVR | 1.56 kcal/mol
TYTYKLTDEEASRRAEDEWRNRGYDVIVRNNNGTWEVEVR | 2.09 kcal/mol
TYTYKLTDEEASRRAEDEWRNRGYDVKVRNNNGTWEVEVR | 1.6 kcal/mol
TYTYKLTDEEASRRAEDEWRNRGYDVLVRNNNGTWEVEVR | 1.68 kcal/mol
TYTYKLTDEEASRRAEDEWRNRGYDVMVRNNNGTWEVEVR | 1.49 kcal/mol
TYTYKLTDEEASRRAEDEWRNRGYDVNVRNNNGTWEVEVR | 1.36 kcal/mol
TYTYKLTDEEASRRAEDEWRNRGYDVPVRNNNGTWEVEVR | -0.472 kcal/mol
TYTYKLTDEEASRRAEDEWRNRGYDVQVRNNNGTWEVEVR | 1.56 kcal/mol
TYTYKLTDEEASRRAEDEWRNRGYDVSVRNNNGTWEVEVR | 1.69 kcal/mol
TYTYKLTDEEASRRAEDEWRNRGYDVTVRNNNGTWEVEVR | 2.03 kcal/mol

Variant | folding stability dG
TYTYKLTDEEASRRAEDEWRNRGYDVVVRNNNGTWEVEVR | 2.05 kcal/mol
TYTYKLTDEEASRRAEDEWRNRGYDVWVRNNNGTWEVEVR | 1.27 kcal/mol
TYTYKLTDEEASRRAEDEWRNRGYDVYVRNNNGTWEVEVR | 1.52 kcal/mol
TYTYKLTDEEASRRAEDEWRNRGYDVRARNNNGTWEVEVR | 0.322 kcal/mol
TYTYKLTDEEASRRAEDEWRNRGYDVRCRNNNGTWEVEVR | 0.766 kcal/mol
TYTYKLTDEEASRRAEDEWRNRGYDVRDRNNNGTWEVEVR | -0.612 kcal/mol
TYTYKLTDEEASRRAEDEWRNRGYDVRFRNNNGTWEVEVR | 0.162 kcal/mol
TYTYKLTDEEASRRAEDEWRNRGYDVRGRNNNGTWEVEVR | -0.651 kcal/mol
TYTYKLTDEEASRRAEDEWRNRGYDVRHRNNNGTWEVEVR | -0.199 kcal/mol
TYTYKLTDEEASRRAEDEWRNRGYDVRIRNNNGTWEVEVR | 1.44 kcal/mol
TYTYKLTDEEASRRAEDEWRNRGYDVRKRNNNGTWEVEVR | -0.078 kcal/mol
TYTYKLTDEEASRRAEDEWRNRGYDVRLRNNNGTWEVEVR | 0.62 kcal/mol
TYTYKLTDEEASRRAEDEWRNRGYDVRMRNNNGTWEVEVR | 0.531 kcal/mol
TYTYKLTDEEASRRAEDEWRNRGYDVRNRNNNGTWEVEVR | -0.678 kcal/mol
TYTYKLTDEEASRRAEDEWRNRGYDVRQRNNNGTWEVEVR | -0.695 kcal/mol
TYTYKLTDEEASRRAEDEWRNRGYDVRRRNNNGTWEVEVR | 1.38 kcal/mol
TYTYKLTDEEASRRAEDEWRNRGYDVRSRNNNGTWEVEVR | 0.536 kcal/mol
TYTYKLTDEEASRRAEDEWRNRGYDVRTRNNNGTWEVEVR | 0.683 kcal/mol
TYTYKLTDEEASRRAEDEWRNRGYDVRWRNNNGTWEVEVR | 0.13 kcal/mol
TYTYKLTDEEASRRAEDEWRNRGYDVRYRNNNGTWEVEVR | 0.207 kcal/mol
TYTYKLTDEEASRRAEDEWRNRGYDVRVANNNGTWEVEVR | 0.917 kcal/mol
TYTYKLTDEEASRRAEDEWRNRGYDVRVCNNNGTWEVEVR | 1.06 kcal/mol
TYTYKLTDEEASRRAEDEWRNRGYDVRVDNNNGTWEVEVR | 0.413 kcal/mol
TYTYKLTDEEASRRAEDEWRNRGYDVRVENNNGTWEVEVR | 0.726 kcal/mol
TYTYKLTDEEASRRAEDEWRNRGYDVRVFNNNGTWEVEVR | 1.63 kcal/mol
